Measurements taken from patent US20200239579A1 (Genmab, published 2020).
Each block holds one binder with its values, some of them ahead of it.

Legend:
[1] = target: T1, human PD-L1 (full length, on cells) (human, UniProt Q9NZQ7 19-290); assay: flow cytometry on PC3 cells, PE anti-human IgG secondary, MFI (PE)
T1 construct: The entry holds the signal peptide; also called CD274; B7H1
Method: (§1) Cells (3-5×10⁴ cells/well) were incubated in polystyrene 96-well round-bottom plates (Greiner bio-one, cat. no. 650101) with serial dilutions of antibodies (range 0.0001 to 10 μg/mL in 5-fold dilution steps) in 50 μL PBS/0.1% BSA/0.02% azide (staining buffer) at 4° C. for 30 min.
(§2) After washing twice in staining buffer, cells were incubated in 50 μL secondary antibody at 4° C. for 30 min. As a secondary antibody, R-Phycoerythrin (PE)-conjugated goat-anti-human IgG F(ab′)₂ (Cat. no. 109-116-098, Jackson ImmunoResearch Laboratories, Inc., West Grove, Pa.) diluted 1:500 in staining buffer, was used for all experiments. Next, cells were washed twice in staining buffer, re-suspended in 20 μL staining buffer and analyzed on an iQue screener (Intellicyt Corporation, USA). Binding curves were analyzed using non-linear regression (sigmoidal dose-response with variable slope) using GraphPad Prism V75.04 software (GraphPad Software, San Diego, Calif., USA).

PDLoneECDHisCtag [2] = target: T2, PDLoneECDHisCtag (human, UniProt Q9NZQ7 19-238); assay: BLI cross-block, second antibody on PDLoneECDHisCtag held by immobilised 632; bold = blocking
T2 construct: Expressed in HEK-293F cells; theoretical molecular weight 29 kDa; also called recombinant human PD-L1 ECD; human PD-L1 (BLI); not shown: C-terminal His-tag; C-tag
Method: (§3) Antibody cross-block testing was performed using biolayer interferometry (BLI) on an Octet HTX instrument (ForteBio). Antibodies (20 μg/ml in 10 mM sodium acetate buffer pH 6.0 (ForteBio)) were immobilized on Amine-Reactive 2nd Generation (AR2G) biosensors (ForteBio) according to the instructions of the manufacturer. After a baseline (50 s) in Sample Diluent (ForteBio), biosensors containing immobilized antibodies were loaded for 500 s with PDLoneECDHisCtag (100 nM or 2.7 μg/ml), after which the association response of a second antibody (10 μg/ml) was followed for 500 s. Biosensors were regenerated by using 3 times 5 s alternating exposures to 10 mM glycine pH 2.5 and Sample Diluent. The experiment was repeated with a new set of second antibodies starting from the baseline step. Each biosensor was used 6 times. The experiment was performed at 30° C. using a shaker speed of 1000 rpm. Data was analyzed using Data Analysis Software v9.0.0.12 (ForteBio). The Y-axis was aligned to the association step and Savitzky-Golay filtering was applied. The average buffer response was subtracted from the association response of the second antibody in order to correct for the dissociation of PDLoneECDHisCtag from the immobilized antibody. The corrected association responses were plotted in a matrix format.

PDLoneECDHisCtag [3] = target: T2, PDLoneECDHisCtag; assay: BLI cross-block, second antibody on PDLoneECDHisCtag held by immobilised 421-LC91S; plain = non-blocking
Method: as §3

[4] = target: T1, human PD-L1 (full length, on cells); assay: flow cytometry on MDA-MB-231 cells, PE anti-human IgG secondary, MFI (PE)
Method: as §1, §2

PDLoneECDHisCtag [5] = target: T2, PDLoneECDHisCtag; assay: BLI (Octet HTX); antibody on anti-human IgG Fc capture sensor, PDLoneECDHisCtag as analyte; 1:1 global fit, 200 s dissociation time
Method: In a first set of experiments, affinities for recombinant-expressed human PD-L1 protein were determined using Bio-layer interferometry (BLI) on an Octet HTX instrument (ForteBio). Anti-Human IgG Fc Capture (AHC) biosensors (ForteBio) were loaded for 900 s with antibodies (1 μg/ml). […] The experiment was carried out while shaking at 1000 rpm at 30° C. Data was analyzed with Data Analysis Software v9.0.0.12 (ForteBio) using the 1:1 model and a global full fit with 1000 s association time and 200 or 1000 s dissociation time. Data traces were corrected by subtraction of a buffer reference, the Y-axis was aligned to the last 10 s of the baseline, and interstep correction as well as Savitzky-Golay filtering was applied. Data traces with a response <0.05 nm were excluded from analysis. As default, the fit using 1000 s dissociation time was used.

PDLoneECDHisCtag [6] = target: T2, PDLoneECDHisCtag; assay: BLI cross-block, second antibody on PDLoneECDHisCtag held by immobilised 547; plain = non-blocking
Method: as §3

PDLoneECDHisCtag [7] = target: T2, PDLoneECDHisCtag; assay: BLI cross-block, second antibody on PDLoneECDHisCtag held by immobilised 476-N101Q-LC33S; bold = blocking
Method: as §3

[8] = target: T1, human PD-L1 (full length, on cells); assay: flow cytometry on MDA-MB-231 cells, PE anti-human IgG secondary, MFI (PE); remark: listed apart in the source
Method: as §1, §2

[9] = target: T1, human PD-L1 (full length, on cells); assay: cell-based or functional assay
[10] = target: T3, cynomolgus monkey PD-L1 (full length, on CHO cells) (cynomolgus monkey (Macaca fascicularis), UniProt G7PSE7 19-290); assay: flow cytometry on CHO cells transfected with cynomolgus PD-L1, PE anti-human IgG secondary, MFI (PE)
T3 construct: whole, on cells; also called PDL1 Mf; cynomolgus PD-L1
Method: as §1, §2
Binding to CHO cells expressing cynomolgus PD-L1 was determined by flow cytometry using a method as described above.

[11] = target: T1, human PD-L1 (full length, on cells); assay: flow cytometry on MDA-MB-231 cells, PE anti-human IgG secondary, MFI (PE); remark: listed apart in the source
Method: as §1, §2

[12] = target: T1, human PD-L1 (full length, on cells); assay: cell-based or functional assay; remark: listed apart in the source
PDLoneECDHisCtag [13] = target: T2, PDLoneECDHisCtag; assay: BLI cross-block, second antibody on PDLoneECDHisCtag held by immobilised 476-N101Q-LC33S; plain = non-blocking
Method: as §3

T1 sequence (Q9NZQ7 19-290 limits assumed): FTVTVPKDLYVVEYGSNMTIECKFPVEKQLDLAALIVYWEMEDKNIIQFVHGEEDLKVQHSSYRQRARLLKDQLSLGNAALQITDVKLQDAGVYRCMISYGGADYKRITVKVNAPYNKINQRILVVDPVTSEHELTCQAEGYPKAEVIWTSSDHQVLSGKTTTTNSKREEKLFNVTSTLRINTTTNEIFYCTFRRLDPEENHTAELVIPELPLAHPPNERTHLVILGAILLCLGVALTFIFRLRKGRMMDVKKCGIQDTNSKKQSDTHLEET
T2 sequence (Q9NZQ7 19-238, form in doubt): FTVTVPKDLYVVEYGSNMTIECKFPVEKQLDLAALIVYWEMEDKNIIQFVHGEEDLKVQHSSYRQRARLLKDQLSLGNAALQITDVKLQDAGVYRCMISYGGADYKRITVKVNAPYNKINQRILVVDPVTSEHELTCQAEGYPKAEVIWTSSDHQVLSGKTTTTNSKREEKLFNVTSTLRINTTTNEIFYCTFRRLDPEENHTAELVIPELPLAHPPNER
T3 sequence (G7PSE7 entry or part of it): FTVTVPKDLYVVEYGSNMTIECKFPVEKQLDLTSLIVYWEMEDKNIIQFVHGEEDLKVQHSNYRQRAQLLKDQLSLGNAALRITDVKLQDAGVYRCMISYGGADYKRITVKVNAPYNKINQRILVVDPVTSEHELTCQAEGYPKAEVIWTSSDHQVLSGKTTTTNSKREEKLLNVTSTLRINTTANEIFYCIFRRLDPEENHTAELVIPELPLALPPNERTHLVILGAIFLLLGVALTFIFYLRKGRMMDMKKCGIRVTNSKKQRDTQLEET

EC50 (read off the curve) [1]: ~0.03 µg/mL
association response of the second antibody (PDLoneECDHisCtag [2]): 0 nm
association response of the second antibody (PDLoneECDHisCtag [3]): 0.3 nm
EC50 (read off the curve) [4]: ~0.08 µg/mL
Kd (PDLoneECDHisCtag [5]): 3.8 nM
koff (PDLoneECDHisCtag [5]): 0.0045 s⁻¹
kon (PDLoneECDHisCtag [5]): 1.2e+06 M⁻¹ s⁻¹
association response of the second antibody (PDLoneECDHisCtag [6]): 0.7 nm
association response of the second antibody (PDLoneECDHisCtag [7]): 0 nm
B1: IgG1-511-LC33S-FEAR (antibody, V domains shown)
VH: QVQLVQSGSELKKPGASVMVSCKASGYTFTSYVMNWVRQAPGQGLEWMGWINSYTGNPTSAQGFTGRFVFSFDTSVNTAYLQISSLKAEDTAVYYCARGYCTSTSCYLDYWGQGTLVTVSS
VL: SYELTQPPSVSVSPGHTARITCSGDALPKKYASWFQQKSGQAPVLVIYEDSKRPSGIPERFSGSTSGTMATLTISGAQVEDETDYYCYSADTSGTHRVFGGGTKLTVLG

EC50 (read off the curve) [8]: ~0.02 µg/mL
EC50 (read off the curve) [9]: ~0.03 µg/mL
EC50 (read off the curve) [10]: ~0.07 µg/mL
B2: IgG1-338-FEAR (antibody, V domains shown)
VH: EVQVVESGGGLVQPGGSLRLSCAASGFTFSRFWMSWVRQAPGKGLEWVANIKQDGGEKYYVDSVKGRFTISRDNAKNSLYLQMNSLRGEDTAVYYCARDDNWNGHFDYWGQGTLVTVSS
VL: DIQMTQSPSTLSASVGDRVTITCRASQSISSWLAWYQQKPGKAPNLLIYKASSLESGVPSRFSGSGSGTEFTLTISSLQPDDFATYYCQQYYGSYITFGQGTRLEIKR

EC50 (read off the curve) [11]: ~0.03 µg/mL
EC50 (read off the curve) [12]: ~0.02 µg/mL
association response of the second antibody (PDLoneECDHisCtag [13]): 0.7 nm
B3: IgG1-547-FEAR (antibody, V domains shown)
VH: EVQLLEPGGGLVQPGGSLRLSCEASGSTFSTYAMSWVRQAPGKGLEWVSGFSGSGGFTFYADSVRGRFTISRDSSKNTLFLQMSSLRAEDTAVYYCAIPARGYNYGSFQHWGQGTLVTVSS
VL: SYVLTQPPSVSVAPGQTARITCGGNNIGSKSVHWYQQKPGQAPVLVVYDDNDRPSGLPERFSGSNSGNTATLTISRVEAGDEADYYCQVWDSSSDHVVFGGGTKLTVLG
